Changes are numbered by the printed parent chain. Names and notes keep the numbering of the source.
B1: Irga6 (IIGP1), wild type, recombinant, GST cleaved off (enzyme, mouse)
chain: MGQLFSSPKSDENNDLPSSFTGYFKKFNTGRKIISQEILNLIELRMRKGNIQLTNSAISDALKEIDSSVLNVAVTGETGSGKSSFINTLRGIGNEEEGAAKTGVVEVTMERHPYKHPNIPNVVFWDLPGIGSTNFPPNTYLEKMKFYEYDFFIIISATRFKKNDIDIAKAISMMKKEFYFVRTKVDSDITNEADGKPQTFDKEKVLQDIRLNCVNTFRENGIAEPPIFLLSNKNVCHYDFPVLMDKLISDLPIYKRHNFMVSLPNITDSVIEKKRQFLKQRIWLEGFAADLVNIIPSLTFLLDSDLETLKKSMKFYRTVFGVDETSLQRLARDWEIEVDQVEAMIKSPAVFKPTDEETIQERLSRYIQEFCLANGYLLPKNSFLKEIFYLKYYFLDMVTEDAKTLLKEICL
notes: Irga6 (IIGP1), mouse immunity-related GTPase; also called WT Irga6; source: E. coli BL21, purified (glutathione Sepharose, GST cleaved off with thrombin, Superdex 75); not shown: GST, N-terminal, cleaved
B2: Irga6-K176E (enzyme, mouse)
chain: B1 chain with K176E
notes: Irga6 (IIGP1), mouse; mutant made in pGEX-4T-2-Irga6; not shown: GST, N-terminal, cleaved
B3: Irga6-E106A (enzyme, mouse)
chain: B1 chain with E106A
notes: Irga6 (IIGP1), mouse; mutant made in pGEX-4T-2-Irga6; source: E. coli BL21, purified (glutathione Sepharose, GST cleaved off with thrombin, Superdex 75); not shown: GST, N-terminal, cleaved
B4: Irga6-E106Q (enzyme, mouse)
chain: B1 chain with E106Q
notes: as for B3
B5: Irga6-K169E (enzyme, mouse)
chain: B1 chain with K169E
notes: as for B2
B6: Irga6-K246E (enzyme, mouse)
chain: B1 chain with K246E
notes: as for B2
B7: Irga6-E106D (enzyme, mouse)
chain: B1 chain with E106D
notes: as for B3
B8: Irga6-R210E (enzyme, mouse)
chain: B1 chain with R210E
notes: as for B2
B9: Irga6-R31E-K32E (enzyme, mouse)
chain: B1 chain with R31E, K32E
notes: Irga6 (IIGP1), mouse; mutant made in pGEX-4T-2-Irga6; also called Arg31, Lys32 mutant; not shown: GST, N-terminal, cleaved
B10: Irga6-D186N (enzyme, mouse)
chain: B1 chain with D186N
notes: Irga6 (IIGP1), mouse; mutant made in pGEX-4T-2-Irga6; also called G4-motif mutant; source: E. coli BL21, purified (glutathione Sepharose, GST cleaved off with thrombin, Superdex 75); not shown: GST, N-terminal, cleaved
B11: Irga6-E106N (enzyme, mouse)
chain: B1 chain with E106N
notes: as for B3
B12: Irga6 with Lys101 mutated to glutamate (enzyme, mouse)
chain: B1 chain with K101E
notes: Irga6 (IIGP1), mouse; mutant made in pGEX-4T-2-Irga6; also called Lys101 mutant; K101E; source: E. coli BL21, purified (glutathione Sepharose, GST cleaved off with thrombin, Superdex 75); not shown: GST, N-terminal, cleaved

Molecular target: the molecule itself
Test: light scattering; self-association (oligomerisation) of 80 μM Irga6 with 10 mM GTP at 37°C; B1 buffer (50 mM Tris/HCl pH 7.4, 5 mM MgCl2)/2 mM DTT; conventional light scattering at 350 or 600 nm

Binding result, binds:
B1
B2
B3
B4
B5
B6
B7
B8
B9
B10
B11
B12
